# According to patent US20110269676A1:
# Target: recombinant gp120 (HIV (strain not stated))
# Experiment: SPR (BIAcore3000), gp120 immobilised on CM5
substance,measurement,value
2D (D1D2 domain of soluble CD4) (from UniProt P01730 26-210) (receptor),Ka,4.8e+07 M⁻¹
same,Kd,0.021 µM
same,koff,0.00047 s⁻¹
same,kon,22000 M⁻¹ s⁻¹
